What is called IC50 is the concentration that inhibits the measured activity by half. The low end stands for greater potency in that assay, the high end for weaker potency in that assay.

These results are taken from patent US9708383 (Novo Nordisk, dated 2017).

Experiment [1] concerns the target T1, human GLP-1 receptor (human, UniProt P43220 24-463).
T1 construct: whole, on cells; Used as purified membranes of the transfected hamster cells, not whole cells; also called hGLP-1
The experiment in a line: SPA, displacement of 125I-GLP-1(7-36)NH2, 0.005% HSA. Background: In a radioligand displacement assay an active substance lowers the binding of a labelled ligand.

Experiment [2] deals with T1, human GLP-1 receptor. Nature of the experiment: SPA, 2.0% vs 0.005% HSA.

*1 amine or outer side, *2 acyl side, *3 side chain or, on linkers, in order; H or OH if unused. Where no end group is shown, it is not given here. Side-chain parts run from the residue outwards. [ ]: non-standard residue; d: D form. The star is where a group is joined. Decanoyl(10-(4-HOOC-PhO)) = O=C(O)c1ccc(OCCCCCCCCCC(=O)*)cc1; C16 diacid = O=C(O)CCCCCCCCCCCCCCC(=O)*; γGlu = O=C(O)[C@H](CCC(=O)[*:2])N[*:1]; Desaminohistidyl = O=C(CCc1c[nH]cn1)*; Hexanoyl(6-Ph) = O=C(CCCCCc1ccccc1)*; 13‑carboxytridecanoyl = C14 diacid; 12Ado = NCCCCCCCCCCCC(=O)O; AEEA = NCCOCCOCC(=O)O; Aib = CC(C)(N)C(=O)O; Aoc = NCCCCCCCC(=O)O A value given as a limit tells only on which side of the number the result lay.

The molecule H[Aib]EGTFTSDVSK([AEEA-AEEA-γGlu-Aoc-γGlu-Hexanoyl(6-Ph)])YLEEQAAK([AEEA-AEEA-γGlu-Aoc-γGlu-Hexanoyl(6-Ph)])EFIAWLVQGRG [GLP-1 derivative of Example 127: [Aib8,Lys18,Glu22,Gln34]-GLP-1-(7-37)-peptide] yielded an IC50 in the experiment with human GLP-1 receptor [1] of less than 1000 nM. Besides, in the experiment with human GLP-1 receptor [2], the “ratio IC50 high HSA/IC50 low HSA” value is more than 1.
For H[Aib]EGTFTSDVSK([AEEA-AEEA-γGlu-Hexanoyl(6-Ph)])YLEEQAAK([AEEA-AEEA-γGlu-Hexanoyl(6-Ph)])EFIAWLVQGRG [GLP-1 derivative of Example 123: [Aib8,Lys18,Glu22,Gln34]-GLP-1-(7-37)-peptide] the same measures were less than 1000 nM and more than 1.
Molecule [Desaminohistidyl]AEGTFTSDVSK([AEEA-AEEA-γGlu-13‑carboxytridecanoyl])YLEEQAVREFIAK([AEEA-AEEA-γGlu-13‑carboxytridecanoyl])LVG [GLP-1 derivative of Example 12: [Imp7,Lys18,Glu22,Val25,Arg26,Lys31,Gly34]-GLP-1-(7-34)-peptide] came in with an IC50 in the experiment with human GLP-1 receptor [1] of less than 1000 nM. In addition, the “ratio IC50 high HSA/IC50 low HSA” value with human GLP-1 receptor [2] was more than 1.

B1: GLP-1 derivative of Example 132: [Aib8,Lys8,Glu22,Gln34]-GLP-1-(7-37)-peptide amide (peptide)
peptide: H[Aib]EGTFTSDVSK([AEEA-AEEA-γGlu-Decanoyl(10-(4-HOOC-PhO))])YLEEQAAK([AEEA-AEEA-γGlu-Decanoyl(10-(4-HOOC-PhO))])EFIAWLVQGRG-NH2
modifications: N-terminus assumed
SMILES: CC[C@H](C)[C@H](NC(=O)[C@H](Cc1ccccc1)NC(=O)[C@H](CCC(=O)O)NC(=O)[C@H](CCCCNC(=O)COCCOCCNC(=O)COCCOCCNC(=O)CC[C@H](NC(=O)CCCCCCCCCOc1ccc(C(=O)O)cc1)C(=O)O)NC(=O)[C@H](C)NC(=O)[C@H](C)NC(=O)[C@H](CCC(N)=O)NC(=O)[C@H](CCC(=O)O)NC(=O)[C@H](CCC(=O)O)NC(=O)[C@H](CC(C)C)NC(=O)[C@H](Cc1ccc(O)cc1)NC(=O)[C@H](CCCCNC(=O)COCCOCCNC(=O)COCCOCCNC(=O)CC[C@H](NC(=O)CCCCCCCCCOc1ccc(C(=O)O)cc1)C(=O)O)NC(=O)[C@H](CO)NC(=O)[C@@H](NC(=O)[C@H](CC(=O)O)NC(=O)[C@H](CO)NC(=O)[C@@H](NC(=O)[C@H](Cc1ccccc1)NC(=O)[C@@H](NC(=O)CNC(=O)[C@H](CCC(=O)O)NC(=O)C(C)(C)NC(=O)[C@@H](N)Cc1c[nH]cn1)[C@@H](C)O)[C@@H](C)O)C(C)C)C(=O)N[C@@H](C)C(=O)N[C@@H](Cc1c[nH]c2ccccc12)C(=O)N[C@@H](CC(C)C)C(=O)N[C@H](C(=O)N[C@@H](CCC(N)=O)C(=O)NCC(=O)N[C@@H](CCCNC(=N)N)C(=O)NCC(N)=O)C(C)C
notes: Name prints Lys8, evidently Lys18
With B1, in the experiment with human GLP-1 receptor [1], the half-inhibitory concentration (IC50) is less than 1000 nM. Further, the “ratio IC50 high HSA/IC50 low HSA” value in the experiment with human GLP-1 receptor [2] is more than 1.
With H[Aib]EGTFTSDVSK([AEEA-AEEA-γGlu-12Ado-γGlu-2‑phenylacetyl])YLEEQAAK([AEEA-AEEA-γGlu-12Ado-γGlu-2‑phenylacetyl])EFIAWLVQGRG [GLP-1 derivative of Example 128: [Aib8,Lys18,Glu22,Gln34]-GLP-1-(7-37)-peptide], the IC50 with human GLP-1 receptor [1] is less than 1000 nM. Moreover, the “ratio IC50 high HSA/IC50 low HSA” value in the experiment with human GLP-1 receptor [2] is more than 1.
[Desaminohistidyl]AEGTFTSDVSK([AEEA-AEEA-γGlu-Decanoyl(10-(4-HOOC-PhO))])YLEEQAAK([AEEA-AEEA-γGlu-Decanoyl(10-(4-HOOC-PhO))])EFIAWLVQGRG [GLP-1 derivative of Example 136: [Imp7,Lys18,Glu22,Gln34]-GLP-1-(7-37)-peptide]: the IC50 with human GLP-1 receptor [1] is less than 1000 nM. In addition, in the experiment with human GLP-1 receptor [2], the “ratio IC50 high HSA/IC50 low HSA” value was more than 1.
The molecule [Desaminohistidyl]AEGTFTSDVSK([AEEA-AEEA-γGlu-C16 diacid])YLEEQAARK([AEEA-AEEA-γGlu-C16 diacid])FIAWLVQGRG [GLP-1 derivative of Example 147: [Imp7,Lys18,Glu22,Arg26,Lys27,Gln34]-GLP-1-(7-37)-peptide] yielded an IC50 with human GLP-1 receptor [1] of less than 1000 nM. Moreover, the “ratio IC50 high HSA/IC50 low HSA” value in the experiment with human GLP-1 receptor [2] was more than 1.
The corresponding values for [Desaminohistidyl]AEGTFTSDVSK([AEEA-AEEA-γGlu-Decanoyl(10-(4-HOOC-PhO))])YLEEQAAREFIAWLVRGRK([AEEA-AEEA-γGlu-Decanoyl(10-(4-HOOC-PhO))]) [GLP-1 derivative of Example 4: [Imp7,Lys18,Glu22,Arg26,Arg34,Lys37]-GLP-1-(7-37)-peptide] are less than 1000 nM and more than 1.
